Source: paper PMC2945410 (Journal of molecular biology, 2010)

Target: the molecule itself
Assay: SEC

B1: EAL domain of TBD1265 from Thiobacillus denitrificans (aa 487-758) (domain or fragment)
chain: not shown
modifications: Se-Met substituted (for the crystals)
  stoichiometry N: 2
